Where two headings read alike, the source gives them in different places. Values belong to the molecule of their own block, whether it stands above or below them. Square brackets hold non-standard residues; d marks the D form. Primed or numbered codes have the meaning given here. Ends that are not written are not given here. FITC′ = fluorescein isothiocyanate fluorescent label; TAMRA = tetramethylrhodamine fluorescent label; Cy5 = cyanine-5 fluorescent label; pS = N[C@@H](COP(=O)(O)O)C(=O)O
T1: 14-3-3β (human, UniProt P31946 1-246)
T1 sequence (looked up): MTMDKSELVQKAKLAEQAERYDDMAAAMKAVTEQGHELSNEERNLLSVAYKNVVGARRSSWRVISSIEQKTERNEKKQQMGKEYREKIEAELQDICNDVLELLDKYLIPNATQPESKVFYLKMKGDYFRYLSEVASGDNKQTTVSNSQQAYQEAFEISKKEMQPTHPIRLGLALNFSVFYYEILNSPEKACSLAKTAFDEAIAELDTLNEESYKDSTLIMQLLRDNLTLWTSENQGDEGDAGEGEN

T2: 14-3-3τ (human, UniProt P27348 1-245)
T2 sequence (looked up): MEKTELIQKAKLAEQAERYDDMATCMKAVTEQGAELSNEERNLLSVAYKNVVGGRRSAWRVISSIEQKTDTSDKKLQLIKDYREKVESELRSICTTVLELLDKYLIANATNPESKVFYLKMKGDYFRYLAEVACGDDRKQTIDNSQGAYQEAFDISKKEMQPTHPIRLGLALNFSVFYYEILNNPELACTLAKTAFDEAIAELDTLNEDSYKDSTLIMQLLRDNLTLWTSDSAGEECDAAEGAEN

T3: 14-3-3ε (human, UniProt P62258 1-255)
T3 sequence (looked up): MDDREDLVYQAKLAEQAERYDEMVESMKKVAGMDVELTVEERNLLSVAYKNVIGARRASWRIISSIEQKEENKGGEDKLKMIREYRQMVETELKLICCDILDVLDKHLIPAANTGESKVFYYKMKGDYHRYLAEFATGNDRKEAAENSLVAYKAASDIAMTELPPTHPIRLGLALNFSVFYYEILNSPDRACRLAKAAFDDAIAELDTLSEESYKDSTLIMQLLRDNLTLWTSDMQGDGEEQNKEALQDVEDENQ

T4: 14-3-3ζ (human, UniProt P63104 1-245)
T4 sequence (looked up): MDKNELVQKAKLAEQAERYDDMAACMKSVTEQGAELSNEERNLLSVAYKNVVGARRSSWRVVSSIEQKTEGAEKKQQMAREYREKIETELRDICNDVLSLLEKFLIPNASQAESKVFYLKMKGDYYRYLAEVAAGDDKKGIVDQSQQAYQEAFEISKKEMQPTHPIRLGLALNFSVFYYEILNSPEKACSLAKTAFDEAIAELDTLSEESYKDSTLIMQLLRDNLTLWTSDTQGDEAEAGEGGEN

T5: 14-3-3σΔC (C-terminally truncated after T231) (human, UniProt P31947 1-231)
T5 sequence (looked up): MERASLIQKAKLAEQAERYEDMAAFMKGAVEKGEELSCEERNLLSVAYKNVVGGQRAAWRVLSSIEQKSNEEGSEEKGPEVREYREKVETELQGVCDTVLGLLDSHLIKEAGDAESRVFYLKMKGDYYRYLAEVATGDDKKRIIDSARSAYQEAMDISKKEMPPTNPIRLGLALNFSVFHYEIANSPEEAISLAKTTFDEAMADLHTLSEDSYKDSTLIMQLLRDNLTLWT

T6: Cy5 labelled 13-mer Amot-p130 peptide (also: phosphoserine at 175 (S5 or S7))
T6 peptide: Cy5-GHVRSL[pS]ERLMQM

B1: FITC-labelled 13-mer Amot-p130 peptide (peptide)
peptide: {FITC′}-GHVRSL[pS]ERLMQM
modifications: also: phosphoserine at 175 (S5 or S7)
B2: 14-3-3η (natural protein, human, UniProt Q04917 1-246, looked up)
chain: MGDREQLLQRARLAEQAERYDDMASAMKAVTELNEPLSNEDRNLLSVAYKNVVGARRSSWRVISSIEQKTMADGNEKKLEKVKAYREKIEKELETVCNDVLSLLDKFLIKNCNDFQYESKVFYLKMKGDYYRYLAEVASGEKKNSVVEASEAAYKEAFEISKEQMQPTHPIRLGLALNFSVFYYEIQNAPEQACLLAKQAFDDAIAELDTLNEDSYKDSTLIMQLLRDNLTLWTSDQQDEEAGEGN

How the values were obtained:
[1] = system: apo 14-3-3; conditions: ref Andrei et al., 2018; cited from earlier work
[2] = biological target: B2; test: fluorescence polarisation
[3] = biological target: T1, 14-3-3β; test: fluorescence polarisation
[4] = biological target: T2, 14-3-3τ; test: fluorescence polarisation
[5] = biological target: T3, 14-3-3ε; test: fluorescence polarisation
[6] = biological target: T4, 14-3-3ζ; test: fluorescence polarisation
[7] = biological target: T5, 14-3-3σΔC (C-terminally truncated after …); test: crystal structure
[8] = biological target: T5, 14-3-3σΔC (C-terminally truncated after …); test: crystal structure; remark: listed apart in the source
[9] = biological target: T6, Cy5 labelled 13-mer Amot-p130 peptide; test: MST
[10] = biological target: B1; test: fluorescence polarisation

Molecule: C=CC(C)(C)OC[C@H]1O[C@H](O[C@@H]2C3=C([C@H](C)CNC(C)=O)C[C@H](O)[C@]3(C)/C=C3/[C@@H](COC)CC[C@H]3[C@@H](C)[C@H]2O)[C@H](O)[C@@H](O)[C@@H]1O [FC-NAc]
- affinity for the apo 14-3-3 [1]: higher affinity for the apo 14-3-3

- binding result [2]: binds
Molecule: {TAMRA}-GHVRSL[pS]ERLMQM (also: phosphoserine at 175 (S5 or S7)) [TAMRA-labelled 13-mer Amot-p130 peptide]

Molecule: B1
- binding result [3]: binds
- binding result [4]: binds
- binding result [5]: binds
- binding result [6]: binds

- binding result [7]: binds
Molecule: GHVRSL[pS]ERLMQMSLATSGV (not fully specified (C-terminus)) [20-mer Amot-p130 peptide (for crystallography)]

- binding result [8]: binds
Molecule: GHVRSL[pS]ERLMQM (not fully specified (C-terminus)) [13-mer Amot-p130 peptide (for crystallography)]

Molecule: B2
- fold stabilisation with 1 mM fragment 09 or 22 against the DMSO control [9]: 2 fold
- fold stabilisation with 1 mM fragment 09 or 22 against the DMSO control [10]: 2 fold

Source: publication PMC8743172 (Current Research in Structural Biology, 2021)
